Measurements as given in PMC7480041 (bioRxiv, 2020).

T1: recombinant HuCoV-NL63 N protein (100–377) (HuCoV-NL63, UniProt Q6Q1R8 100-377)
T1 sequence: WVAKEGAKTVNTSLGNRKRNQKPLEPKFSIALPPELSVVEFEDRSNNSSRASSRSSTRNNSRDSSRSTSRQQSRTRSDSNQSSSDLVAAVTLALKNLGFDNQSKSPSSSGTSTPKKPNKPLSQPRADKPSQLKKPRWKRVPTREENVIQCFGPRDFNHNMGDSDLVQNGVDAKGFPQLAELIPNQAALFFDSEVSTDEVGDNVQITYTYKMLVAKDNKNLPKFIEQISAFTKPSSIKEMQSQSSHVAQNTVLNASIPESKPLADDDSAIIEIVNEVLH


Tests used:
Assay in all cases: ELISA
[1] = target: recombinant SARS-CoV N protein (133–422) (SARS-CoV, UniProt P59595 133-422)
[2] = target: T1, recombinant HuCoV-NL63 N protein …
[3] = target: recombinant SARS-CoV N protein (133–422) (SARS-CoV, UniProt P59595)
[4] = target: recombinant HuCoV-NL63 N protein (100–377) (HuCoV-NL63, UniProt Q6Q1R8)

recombinant SARS-CoV N protein (133–422) (SARS-CoV, UniProt P59595 133-422), sequence (P59595 133-422): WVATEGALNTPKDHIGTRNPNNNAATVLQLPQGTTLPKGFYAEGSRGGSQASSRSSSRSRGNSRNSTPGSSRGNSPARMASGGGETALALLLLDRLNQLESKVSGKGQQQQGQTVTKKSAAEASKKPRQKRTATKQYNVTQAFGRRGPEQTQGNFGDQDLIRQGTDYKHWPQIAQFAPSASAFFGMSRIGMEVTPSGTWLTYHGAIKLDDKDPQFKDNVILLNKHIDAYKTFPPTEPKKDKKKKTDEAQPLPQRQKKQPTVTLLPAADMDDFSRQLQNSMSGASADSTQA
recombinant SARS-CoV N protein (133–422) (SARS-CoV, UniProt P59595), sequence (P59595 133-422): as above

Binder	corrected average ELISA signal [1]	corrected average ELISA signal [2]	corrected average ELISA signal [3]	corrected average ELISA signal [4]
mBG67 (antibody, V domains shown) VH: EVQLVESGGGLVQPGGSLKLSCAASGFTFSNYGMSWVRQTPDKRLELVATINRNGGSTYYLDSVKVRFTISRDNAKSTLFLQLSSLKSDDTAMYYCARIYDFDEDYFDVWGAGTTVTVSS VL: QIVLTQSPAIMSASLGERVTMTCTASSSVSSSYLHWYQQKPGSSPKLWIYSTSNLASGVPARFSGSGSGTSYSLTISSMEAEDAATYYCLQYHRSPWTFGGGTKLEIK	0.39	–	–	–
mBG17 (antibody, V domains shown) VH: EVKLEESGGGLVQPGGSMKFSCVASGFTFSDYWMNWVRQSPDKGLEWVAEIRLKSNNYATHYAASVKGRFTISRDDSKSSVYLQMNNLRAEDSGIYYCTRSAMDYWGQGTSVTVSS VL: DIVMSQSPSSLAVSVGEKITMSCKSSQSLLYTSDQKNYLAWFQQKPGQSPKLLIFWASTRDSGVPDRFTGSGSGTDFTLTISSVKAEDLAVYYCQQFYNYPRTFGGGTKLEIK	1.39	0.54	–	–
mBG21 (antibody, V domains shown) VH: QIQLVQSGPELKKPGETVKISCKASGYTFTDYSMHWVKQAPGKGSKWMGWINTETGEPTYADDFKGRFAFSLETSASTAYLQINNLKNEDTATYFCALRRWGQGTLVTVSS VL: IVMTQTPKFLLVSAGDRVTITCKASQSVSNDVAWFQQKPGQSPKKLLIYFASNRYTGVPDRFTGSGYGTDFTFTITTVQAEDLAVYFCQQDYSSPWTFGGGTKLEIK	–	–	1.49	0.47
mBG22 (antibody, V domains shown) VH: QIQLVQSGPELKKPGETVKISCKASGYTFTDYSMHWVKQAPGKGSKWMGWINTETGEPTYADDFKGRFAFSLETSASTAYLQINNLKNEDTATYFCALRRWGQGTLVTVSA VL: IVMTQTPKFLLVSAGDRVTITCKASQSVSNDVAWFQQKPGQSPKLLIYFASNRYTGVPDRFTGSGYGTDFTFTITTVQAEDLAVYFCQQDYSSPWTFGGGTKLEIK	0.76	0.51	–	–
